According to the DeepSol protein solubility set:

Test: soluble on expression in E. coli; label from the status in PepcDB or PDB records
With “MSNARIGIDMSKIYAPKSIDLSSFQLPDEKLQTKYGLPHKVEFCKSCVISNQRPNSAVEYEHKKESKKHTIHFDDEGICDACRVAERKKSTINWEERDRQLRELCDRFRSKDGSYDCVVPGSGGKDSFYAAHILKYKYGMNPLTVTWAPHMYTPWGWRNFQSWIHAGFDNHLFTPNGRVHRLLTRLAVENLFHPFQPFMIGQKAYAPKMALLHKIKLVVYGENEAEYGNPIGDTESAKRDWKYFTADDKSKIFLGGTSVQELKSDFGLNDNDLDAYLPADPQQIEEQQVEVHYLGYYLKWHPQSCYYYSVEHGGFEASPERTPGTYSKYNSIDDKIDDFHYYTTLTKFGIGRATYDASQEIRSGDITVEEGVALVKRFDQEFPERFAEEIFKYLSINLKEFPIASQMFEQPIMDRAYFMALADTFRSPHLWKKDGEQWKLRHQVTNLEKTKAEYLDLETV” the “soluble on expression in E. coli” value was “not soluble”.
With “SGSSTGDLVTRIQSAHRFDHDALFRFAADNVSGFPTNPSQFKVSQFGHGQSNPTFLIEVGSGSSLKRYVLRKKPPGKLLQSAHAVDREFQVLRALGEHTQVPVPKVFCLCTDPAVIGTAFYIMEFMEGRIFIDPKLPNVAPERRNAIYRATAKALASLHSADVDAIGLEKYGRRGNYCKRQIDRWFKQYLASTSEGKPERNPKMFELVDWLRKNIPAEDSTGATSGLVHGDFRIDNLVFHPSEDRVIGIIDWELSTLGNQMCDVAYSCMHYIVNVQLDKEHVSEGFETTGLPEGMLSMPEFLLEYCSASGKPWPAANWKFYVAFSLFRAASIYTGVYSRWLMGNASAGERARNTGVQANELVESALGYIARENVLPEHPPSVQRDVSPSYESLVDGSGRFIPNRKVLELRQKLIKFMETHIYPMENEFSKLAQSDMRWTVHPQEEKLKEMAKREGLWNLFVPVDSAARARRELAATENKHNLSGKSFDQLFGEGLTNLEYGYLCEIMGRSVWAPQVFNCGAPDTGNMEVILRYGNKEQISEWLIPLLEGRIRSGFAMTEPQVASSDATNIECSIRRQGDSYVINGTKWWTSGAMDPRCRVLILMGKTDFNAPKHKQQSMILVDMRTPGISVKRPLTVFGFDDAPHGHAEISFENVVVPAKNILLGEGRGFEIAQGRLGPGRLHHCMRLIGAAERGMELMAQRALSRKTFGKFIAQHGSFVSDLAKLRVELEGTRLLVLEAADHLDKFGNKKARGILAMAKVAAPNMALKVLDTAIQVHGAAGVSSDTVLAHLWATARTLRIADGPDEVHLGTIGKLELQRASKL” the “soluble on expression in E. coli” value was “soluble”.
In the case of “YYHSVIVANLAETAAEKIGANPILARIGAYYHDIGKMKRPHFFTENIRDGKNPHEDITPSLSHLVLNEHVKYGVELARKYRLPLLVEFIIPQHHGTRSQKYFYYKAKQQFEDIPEEEFRYPGPKPQFKEAAIIMLADSVEA”, the “soluble on expression in E. coli” value is reported as “soluble”.
For “MPYVFLLSPQLEIASQWDGYYEKTFEVSDHVHKEIILKVSGQTVLITGSGSGLGRLMAFEFGKLGARLVLWDINEQGNKETLKELEAMGVEVWTCNIFHIYRFIR”, the “soluble on expression in E. coli” value was “not soluble”.
In the case of “MATLFIADLHLCAEEPAITAGFLRFLAGEARKADALYILGDLFEAWIGDDDPNPLHHQMAAAIKAVSDSGVPCYFIHGNRDFLLGKRFARESGMTLLPEEKVLELYGRRVLIMHGDTLCTDDAGYQAFRAKVHKPWLQTLFLALPLFVRKRIAARMRANSKEANSSKSLAIMDVNQNAVVSAMEKHQVQWLIHGHTHRPAVHELIANQQTAFRVVLGAWHTEGSMVKVTADDVELIHFPF”, the “soluble on expression in E. coli” value is reported as “soluble”.
For “MGSDKIHHHHHHMSDIHKKIKKKQFAPLYLLYGTEAFFINETIKLITTEALEEEDREFNVVTYDLEEAYLEDVVEDARTLPFFGERKVLLIKSPLFLTSQKEKLEQNIKILEEYIGEPSPFSILVFVAPYEKLDERKKITKLLKKTADVVEANAMQVQDVQKWIVARADEVHVHIDHAAVSLLLELVGSNVTMLAKEMDKLTLYVGMGGDITPKLVAELVPKSVEQNVFALTEKVVKKDIAGAMQILDGLFTQQEEPIKLLALLVSQFRLLHQVKELQQRGYGQNQIASHIGVHPYRVKLAMNQTKFFSFEELKKVIMELAEADYSMKTGKMDKKLVLEFFLMRLNHM”, the “soluble on expression in E. coli” value was “not soluble”.
In the case of “MGSDKIHHHHHHMQTSHCLWQRKLVAFTSRSERMDENWKQQLATDSYGNPVRSISNLRLIFTLDENLSQIRYDTFCQDDVCFNPLFRNVNGNKIDEESVGKIQDYLERTYRLRLTQNKVFEILKTTSSERSFNPVQEFITQETWDGQPRIATAIIDYLGAEDMPLVREQTKLWFVAAVARVFSPGCKFDNVLTLPGPQGIGKSTFFKTISGKWFNDSFSFASGDKEKVETITNGWIIEISELNGLKRANDVEAAKAFLSRCSDYMRPAYGHKVVEFMRHNVFAATTNETNFLQGDNGNRRWWIIPVKGNGHVSDWLDCLQHSVPQLWAEAYTYYRQGMKLYLSPDMEIEANEIQMQHSNILVDPIMEDIEMYLEREVPVQYASWMIPTRLAYQKGAYSEPNSTMTSLNMVCARQIIEELPNDLVRRNTSKYTSQYINRLMSMIPNWKRSKQEKVKGLHPAYCDKTGRSKHPWVRVGTPSEEVCATLPSEPELPF”, the “soluble on expression in E. coli” value is reported as “not soluble”.
For “MKSIYIILVNYNNFQDTIECVKSLRKIKNYHNYKVIIVDNDSKNDSVSKIKSFLQDCLLIESKKNLGFAGGNNLGIKYAMKHNADYVLLLNNDTVVENDFLDKLLEVHENYGNVGIVGGKIYYYYDKNRIWYAGGKINKFTGKTKHIGVNEIDEGQYNNISITGYVTGCMMLISKGAIEKCGVMDEKYFLYYEETDWNVRIKNAGFKIMYTPLSKIYHKVSSTTGKSDLIMSYYYDRNRYYFVFKNFNWVCKLSVTLYILVRLYAKLFKAIAINDVKRKHLIEYTIISIKNNIMGEIRV”, the “soluble on expression in E. coli” value was “not soluble”.
In the case of “MGYPVILHLRGRRAVVVGGGKVAARKIHGLLEAGAEIVMIAPEAEPELQALAAGGMIVWKKKRFDPDDLAEAFLVIAATNDRKVNEAVTQAASSGQLVNVVDDPERCDFHVPAVIRRGPLTIAVSTGGASPAVARRIRRELEEKYGEEYRPYLEFLQRARGIVLREVEDAEGRKRLFQALAADSFRQSGRWEEEFTRLLAKEKERNKEGERGR”, the “soluble on expression in E. coli” value is reported as “soluble”.
In the case of “MSLRILAIDTATEACSVALWNNGTINAHFELCPREHTQRILPMVQEILAASGASLNEIDALAFGRGPGSFTGVRIGIGIAQGLALGANLPMIGVSTLATMAQGAWRKTGATRVLAAIDARMGEVYWAEYQRDAQGVWQGEETEAVLKPERVGERLKQLSGEWATVGTGWSAWPDLAKECGLTLHDGEVSLPAAEDMLPIASQKLAAGETVAVEHAEPVYLRNEVAWKKLPGKEEGHHHHHH”, the “soluble on expression in E. coli” value is reported as “soluble”.
For “MGSDKIHHHHHHMAQMTPSQEPQSAAEYDDRTTAAVKSVLIEIGQILGSFKGKFAIIGGAVPWLLLANEDMPHVGTLDVDVGLDAEALGDGEYATLVGALQGHGYAQREGLRRFQLVRQVPARDGGEAIDVVVDFLMPRDAEIVRNNPPLISDFAVQRADGADLAMRFYQLVAVAGSMPDGGTNRVEIAVCSIPALLAMKGHALAGRYKQKDAYDIYYCVRNYPAGIEALAQECRPLLGHASGERGFLHIADKFDAFDGYGPTCVRRFVEDTQALGDRTPDQWQQDAFGQIDALLRAMALRG”, the “soluble on expression in E. coli” value was “not soluble”.
With “PLLIGGLYPKNLEDRILIKLDQAPPYLLDGLVAVEDRDFYHHFGVSPKSIARAIWVNTSQGQMRQGGSTLTQQLVKNFYLTNERSLSRKLTEAMMAVLLEIHYSKQEILEAYLNEVFVGQDGQRAVHGFGLASQYFFSQPLSELKIHQVAMLVGLVKGPSFY” the “soluble on expression in E. coli” value was “not soluble”.
For “MGSDKIHHHHHHMDEALAHANGETPAVGDYMTRDVATVSADDTVSDVAARISESDHNGFPVTDGRHVEGFVSARDLLLADPDELLFKVMTEDLVVAHPEMDVTDAARVILRSGIQKLPVVDDAGNLVGIITNADVIRSQIERATPEKVGKLMRTLETIHGVSITEERRTVTISDVVPTQGKVYADELEGRRYELENGLAEPLVVIDNGSTGDDGSLLLADGHHRVMAAERAGVAEMDAYVIVLERAVDLGMARTARTEGLDSIADIDVVDYARHPLVETIERLQ”, the “soluble on expression in E. coli” value was “not soluble”.
In the case of “MQPVTKNGESMNKTALLLTVVGAVLLTGCARQENEYTVKEYTSMANPASVYCVEQGGQLEMVTENEQRVTYCVTKDGEKIEQWEYFRQNHDQQ”, the “soluble on expression in E. coli” value is reported as “not soluble”.
For “MNHKAFAKFPSSASISPNPFTVSIPDEQLDDLKTLVRLSKIAPPTYESLQADGRFGITSEWLTTMREKWLSEFDWRPFEARLNSFPQFTTEIEGLTIHFAALFSEREDAVPIALLHGWPGSFVEFYPILQLFREEYTPETLPFHLVVPSLPGYTFSSGPPLDKDFGLMDNARVVDQLMKDLGFGSGYIIQGGDIGSFVGRLLGVGFDACKAVHLNFCNMSAPPEGPSIESLSAAEKEGIARMEKFMTDGYAYAMEHSTRPSTIGHVLSSSPIALLAWIGEKYLQWVDKPLPSETILEMVSLYWLTESFPRAIHTYREWVPTASAPNGATPYQKELYIHKPFGFSFFPKDLVPVPRSWIATTGNLVFFRDHAEGGHFAALERPRELKTDLTAFVEQVWQKGRSHHHHHH”, the “soluble on expression in E. coli” value was “soluble”.
In the case of “MKLQTTYPSNNYPIYVEHGAIKYIGTYLNQFDQSFLLIDEYVNQYFANKFDDILSYENVHKVIIPAGEKTKTFEQYQETLEYILSHHVTRNTAIIAVGGGATGDFAGFVAATLLRGVHFIQVPTTILAHDSSVGGKVGINSKQGKNLIGAFYRPTAVIYDLDFLKTLPFKQILSGYAEVYKHALLNGESATQDIEQHFKDREILQSLNGMDKYIAKGIETKLDIVVADEKEQGVRKFLNLGHTFGHAVEYYHKIPHGHAVMVGIIYQFIVANALFDSKHDISHYIQYLIQLGYPLDMITDLDFETLYQYMLSDKKNDKQGVQMVLMRQFGDIVVQHVDQLTLQHACEQLKTYFK”, the “soluble on expression in E. coli” value is reported as “soluble”.
In the case of “GDDYTQQQGEVEKQPNIDELKKRMEQSRLNKLRGDLDQLIESDPKLRALRPHLKIDLVQEGLRIQIIDSQNRPMFKTGSAEVEPYMRDILRAIAPVLNGIPNRISLAGHTDDFPYANGEKGYSNWELSADRANASRRELVAGGLDNGKVLRVVGMAATMRLSDRGPDDAINRRISLLVLNKQAEQAILHENAESQNEPVSVLQQHHHHHH”, the “soluble on expression in E. coli” value is reported as “soluble”.
In the case of “MTVTLTCRFKLELSKDQKQQFLDIATAYTNAVNYVLEQNLKDKSTNVKKLHRLYYKTIREDFDLPAQMAINVNRDVSAMYKTLWAQFKELKRRKPDSKAVKKFWDKPPKRKSLIVKYTYNRTASFKKINGEWHASLSTLQGRIKWIPMKGWSKHFEYLKSCKIGDPILTYDKSSKTFFLLVPVTLEVQEHQPKEIVGVDVGERHIAAVASTKGTRYLIDLPEEFKQRKQHYQRLRSELMSKGTRSAKRKLARISRREKRFTENVLHIIAKKLTTSHPGARFVLEDLTQIRANRITYRGKDKEARRQSEQWPFASLQQKIEYKAKLYYGVQSEKVDPSYTSQTCPRCGHVSKENRPDHGERFVCQSCGYEEHADIVGAINIALRVLAKDQQVNLEKLLGAVVSRPDAPRLGLEHHHHHH”, the “soluble on expression in E. coli” value is reported as “soluble”.
For “MGSDKIHHHHHHEVPIGFDTDELSFDMSLVLLTGDMQTKASDPNYTYATTEELTIQNCHVAVFDKDGKRIYFKNFYSKDLGEMKTIGNLSGYELQLEGVRTFGKEDKKVSVLVVANANNANNSPFDNLTTYDGVDNSYTAKTIAKGPVTASLLVKIGKSETTLKYNQDNAPVTVSLIQLSAKIEYTGVYKKENGELLEGFSLTKVAGLNASSKITIFNTSAVENGAFSDLAYPTTKPVTFYTYEISDAFKEVILSVQSGVEPKEYPFPANKFIKGNYYRIKGLKSSTEIEWVLENVEDKEVTLDPFE”, the “soluble on expression in E. coli” value was “not soluble”.
With “MGSDKIHHHHHHMRIAFSTLGCPQAPLHEVTALAREHRVDGLELRIHDDGIVSDHMDRSRREQVRASISRTGLTVLSLGSYIKVCQPGPDETVVRQLRTALELAADVGAEAVRVFPGAGTGPTTDHYGIAVTELDMRGSSRLAAAAPIAERLGLRLLLETHDSHPRGVDISRILAPFRAEDPVGAIWDVMHPWRFGEDPVQTAHQLGSHYQYVQFKDATMDRQTGNLTMTLPGAGDIPLQRILDLVVARTPTTEEPWISLEWEKAWHPELPGLPEALIAFKTLLGRPESDAALSGSPRRPGSAAGARRNGTL” the “soluble on expression in E. coli” value was “not soluble”.
